Measurements reported in publication PMC4391263, “Alpers disease mutations in human DNA polymerase gamma cause catalytic defects in mitochondrial DNA replication by distinct mechanisms”.

Key:
[1] = target: Pol-γA S305R (exo+);Pol-γB accessory subunit (Homo sapiens;Homo sapiens, UniProt P54098;Q9UHN1 26-1239;26-485, S305R|); experiment: global fit of pre-steady-state single-nucleotide incorporation kinetics (quench flow, DNA titration); 12.5 mM Mg2+, dATP; 12.5 mM Mg2+, 37 °C; enzyme and DNA preincubated, rapid quench flow; buffer, salt and pH not given in the material. Table 1 WT Kd (9.9 ± 2.1 nM) is asterisked as apparently earlier data and not listed; settings: protein: recombinant;recombinant; tags: ;; copies: 1;2; label: 5'-32P primer; 5' overhang 20 nt on template, recessed primer 3' end
[2] = target: T1, Pol-γA P1073L (exo+);Pol-γB accessory subunit (Homo sapiens;Homo sapiens, UniProt P54098;Q9UHN1 26-1239;26-485, P1073L|); experiment: global fit of processive polymerization time course; 12.5 mM MgCl2; dATP, dCTP, TTP 5 μM each; 12.5 mM Mg2+, 37 °C; enzyme and DNA preincubated, rapid quench flow; buffer, salt and pH not given in the material. Table 1 WT Kd (9.9 ± 2.1 nM) is asterisked as apparently earlier data and not listed; settings: protein: recombinant;recombinant; tags: ;; copies: 1;2; label: 5'-32P primer; 5' overhang 20 nt on template, recessed primer 3' end
[3] = target: T1, Pol-γA P1073L (exo+);Pol-γB accessory …; experiment: pre-steady-state single-nucleotide incorporation kinetics; 12.5 mM Mg2+, dATP; 12.5 mM Mg2+, 37 °C; enzyme and DNA preincubated, rapid quench flow; buffer, salt and pH not given in the material. Table 1 WT Kd (9.9 ± 2.1 nM) is asterisked as apparently earlier data and not listed; settings: protein: recombinant;recombinant; tags: ;; copies: 1;2; label: 5'-32P primer; 5' overhang 20 nt on template, recessed primer 3' end
[4] = target: Pol-γA wild-type (exo+);Pol-γB accessory subunit (Homo sapiens;Homo sapiens, UniProt P54098;Q9UHN1 26-1239;26-485, |); experiment: global fit of processive polymerization time course; 12.5 mM MgCl2; dATP, dGTP, TTP 5 μM each; 12.5 mM Mg2+, 37 °C; enzyme and DNA preincubated, rapid quench flow; buffer, salt and pH not given in the material. Table 1 WT Kd (9.9 ± 2.1 nM) is asterisked as apparently earlier data and not listed; settings: protein: recombinant;recombinant; tags: ;; copies: 1;2; 5' overhang 48 nt on template, recessed primer 3' end
Chain of Pol-γA wild-type (exo+);Pol-γB accessory subunit (P54098 26-1239, chain 1 of 2): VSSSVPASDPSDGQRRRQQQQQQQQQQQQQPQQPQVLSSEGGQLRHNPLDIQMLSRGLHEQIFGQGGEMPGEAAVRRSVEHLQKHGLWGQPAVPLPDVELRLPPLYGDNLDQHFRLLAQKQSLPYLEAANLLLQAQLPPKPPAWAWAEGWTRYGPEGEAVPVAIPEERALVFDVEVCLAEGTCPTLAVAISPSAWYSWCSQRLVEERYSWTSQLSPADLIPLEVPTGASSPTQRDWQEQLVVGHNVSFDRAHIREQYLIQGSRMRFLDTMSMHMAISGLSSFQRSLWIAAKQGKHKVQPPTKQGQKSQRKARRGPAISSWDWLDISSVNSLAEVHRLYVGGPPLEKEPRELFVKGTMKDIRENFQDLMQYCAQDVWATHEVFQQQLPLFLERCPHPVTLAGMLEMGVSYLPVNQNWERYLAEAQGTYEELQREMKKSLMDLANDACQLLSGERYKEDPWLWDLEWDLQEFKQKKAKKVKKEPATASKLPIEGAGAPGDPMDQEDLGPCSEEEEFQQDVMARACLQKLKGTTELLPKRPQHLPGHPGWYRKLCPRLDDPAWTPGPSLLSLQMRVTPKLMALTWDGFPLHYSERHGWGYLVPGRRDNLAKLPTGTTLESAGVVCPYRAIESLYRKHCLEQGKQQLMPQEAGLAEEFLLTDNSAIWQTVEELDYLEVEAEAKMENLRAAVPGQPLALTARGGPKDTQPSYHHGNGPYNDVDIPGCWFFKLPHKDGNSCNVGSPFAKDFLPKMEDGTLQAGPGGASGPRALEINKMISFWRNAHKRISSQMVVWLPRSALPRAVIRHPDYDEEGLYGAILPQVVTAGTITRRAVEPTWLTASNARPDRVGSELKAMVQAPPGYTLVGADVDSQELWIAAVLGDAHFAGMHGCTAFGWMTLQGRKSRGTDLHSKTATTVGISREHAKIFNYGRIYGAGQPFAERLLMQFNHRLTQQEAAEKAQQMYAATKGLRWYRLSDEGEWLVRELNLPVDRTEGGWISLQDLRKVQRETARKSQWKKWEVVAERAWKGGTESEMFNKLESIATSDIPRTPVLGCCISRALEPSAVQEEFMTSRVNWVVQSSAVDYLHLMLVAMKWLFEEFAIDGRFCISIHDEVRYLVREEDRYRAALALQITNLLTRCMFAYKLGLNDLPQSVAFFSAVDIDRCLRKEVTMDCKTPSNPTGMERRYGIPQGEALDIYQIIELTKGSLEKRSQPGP
Chain of Pol-γA wild-type (exo+);Pol-γB accessory subunit (Q9UHN1 26-485, chain 2 of 2): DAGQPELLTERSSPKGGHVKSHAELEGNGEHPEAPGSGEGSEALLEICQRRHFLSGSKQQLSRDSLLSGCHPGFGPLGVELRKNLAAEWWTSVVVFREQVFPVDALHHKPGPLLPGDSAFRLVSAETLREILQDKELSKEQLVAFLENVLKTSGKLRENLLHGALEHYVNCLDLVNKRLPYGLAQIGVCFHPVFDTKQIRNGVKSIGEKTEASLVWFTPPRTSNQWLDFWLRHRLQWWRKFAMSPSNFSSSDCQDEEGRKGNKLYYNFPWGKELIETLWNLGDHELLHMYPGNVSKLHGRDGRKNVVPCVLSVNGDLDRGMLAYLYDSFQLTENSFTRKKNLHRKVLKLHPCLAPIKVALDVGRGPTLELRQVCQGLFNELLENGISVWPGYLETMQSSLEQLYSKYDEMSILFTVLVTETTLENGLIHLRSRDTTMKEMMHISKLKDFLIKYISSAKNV

T1 sequence (P54098 26-1239 P1073L, chain 1 of 2): as the sequence (P54098 26-1239, chain 1 of 2) above, with P1048L counted along it
T1 sequence (Q9UHN1 26-485, chain 2 of 2): as the sequence (Q9UHN1 26-485, chain 2 of 2) above
Chain of Pol-γA S305R (exo+);Pol-γB accessory subunit (P54098 26-1239 S305R, chain 1 of 2): as the sequence (P54098 26-1239, chain 1 of 2) above, with S280R counted along it
Chain of Pol-γA S305R (exo+);Pol-γB accessory subunit (Q9UHN1 26-485, chain 2 of 2): as the sequence (Q9UHN1 26-485, chain 2 of 2) above

| Binder | Kd [1] | Kd [2] | Kd [3] | Kd [4] |
| --- | --- | --- | --- | --- |
| 25-mer/45-mer primer-template (dsDNA) DNA 1: GCCTCGCAGCCGTCCAACCAACTCA DNA 2: GGACGGCATTGGATCGAGGTTGAGTTGGTTGGACGGCTGCGAGGC | 100 ± 4 nM | 15 nM | 10.2 ± 1.2 nM |  |
| 25-mer/73-mer primer-template (dsDNA) DNA 1: GCCTCGCAGCCGTCCAACCAACTCA DNA 2: CCCCACCTGCAGGCATGCAAGCTTGGCACTGGCCGTCGTTTTACCTCTTGAGTTGGTTGGACGGCTGCGAGGC |  |  |  | 15 nM |
